Assay [1] has as its target T1, human IL-1α (human, UniProt P01583 113-271).
T1 sequence: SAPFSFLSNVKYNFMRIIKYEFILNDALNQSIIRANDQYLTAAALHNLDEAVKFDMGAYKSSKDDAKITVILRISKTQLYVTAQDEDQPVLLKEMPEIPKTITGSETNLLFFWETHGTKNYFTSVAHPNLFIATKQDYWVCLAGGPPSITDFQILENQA
Kind of assay: cell-based or functional assay.

Assay [2] deals with T2, cynomolgus IL-1α (cynomolgus, UniProt P79340 113-271, limits assumed).
T2 sequence (looked up): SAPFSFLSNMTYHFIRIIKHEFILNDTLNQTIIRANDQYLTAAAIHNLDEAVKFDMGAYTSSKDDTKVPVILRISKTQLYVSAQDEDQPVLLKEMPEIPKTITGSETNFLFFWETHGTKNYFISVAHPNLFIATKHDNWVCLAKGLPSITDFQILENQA
Kind of assay: cell-based or functional assay.

Assay [3] has as its target T1, human IL-1α. Put plainly: ELISA; antibody captured by anti-human Fc, biotinylated antigen titrated. The protocol:
Plates were washed five times in washing buffer (PBS containing 0.05% Tween 20), and blocked for 1 hour at 25° C. with 200 μl per well superblock blocking buffer (Thermo scientific, #37515). Blocking buffer was removed by tapping plates, and 2 μg/ml of each antibody in PBS containing 10% superblock, 0.5% tween-20 was added to the wells at 100 μl per well and incubated at 25° C. for 1 hour. The wells were washed five times in 1×PBST, and 1 μg/ml biotinylated antigen was titrated at 1:6 serial dilutions (for a range of μg to pg in PBS containing 10% superblock, 0.05% Tween 20). Each dilution of antigen was then added to the plates and incubated for 1 hour at 25° C. The wells were washed five times in 1XPBST and incubated for 1 hour at […]. with polyHRP streptavidin (KPL #474-3000, Gaithersburg, Md.). The wells were washed five times in 1XPBST, and 100 μl of ULTRA-TMB ELISA (Pierce, Rockford, Ill.) were added per well. Following color development the reaction was stopped with 1N HCL and absorbance at 450 nm is measured. The results are shown in Table 11 and the numerical value indicates binding of human anti-IL-1a antibodies to human IL-1α.

Assay [4] deals with T1, human IL-1α. Put plainly: SPR (Biacore 3000), antibody captured, antigen in solution, 25 °C. The procedure: (§1) The BIACORE assay (Biacore, Inc, Piscataway, N.J.) determines the affinity of antibodies with kinetic measurements of on-, off-rate constants. Binding of antibodies to recombinant purified human IL-1α and cynomolgus IL-1α was determined by surface plasmon resonance-based measurements with a Biacore® 3000 instrument (Biacore® AB, Uppsala, Sweden) using running HBS-EP (10 mM HEPES [pH 7.4], 150 mM NaCl, 3 mM EDTA, and 0.005% surfactant P20) at 25° C. All chemicals were obtained from Biacore® AB (Uppsala, Sweden) or otherwise from a different source as described in the text. Approximately 5000 RU of goat anti-mouse IgG, (Fcγ), fragment specific polyclonal antibody (Pierce Biotechnology Inc, Rockford, Ill.) diluted in 10 mM sodium acetate (pH 4.5) was directly immobilized across a CM5 research grade biosensor chip using a standard amine coupling kit according to manufacturer's instructions and procedures at 25 μg/ml. Unreacted moieties on the biosensor surface were blocked with ethanolamine. Modified carboxymethyl dextran surface in flowcell 2 and 4 was used as a reaction surface. Unmodified carboxymethyl dextran without goat anti-mouse IgG in flow cell 1 and 3 was used as the reference surface. For kinetic analysis, rate equations derived from the 1:1 Langmuir binding model were fitted simultaneously to association and dissociation phases of all eight injections (using global fit analysis) with the use of Biaevaluation 4.0.1 software. Purified antibodies were diluted in HEPES-buffered saline for capture across goat anti-human IgG specific reaction surfaces. Antibodies to be captured as a ligand (25 μg/ml) were injected over reaction matrices at a flow rate of 5 μl/minute. The association and dissociation rate constants, kₒₙ (unit M⁻¹s⁻¹) and koff (unit s⁻¹) were determined under a continuous flow rate of 25 μl/min Rate constants were derived by making kinetic binding measurements at ten different antigen concentrations ranging from 10-200 nM. The equilibrium dissociation constant (unit M) of the reaction between antibodies and the target antigen was then calculated from the kinetic rate constants by the following formula: KD=koff/kₒₙ. Binding is recorded as a function of time and kinetic rate constants are calculated. In this assay, on-rates as fast as 10⁶M⁻¹s⁻¹ and off-rates as slow as 10⁻⁶ s⁻¹ can be measured.

The target in assay [5] is T2, cynomolgus IL-1α. The description is as above. The protocol:
as §1

One may read the EC50 as the concentration giving half of the maximal effect. A lower EC50 goes with higher potency in that assay. As usually defined, the Kd is the concentration at which binding is half-saturated. Lower therefore signals a tighter complex. As usually defined, the koff is the first-order rate constant of dissociation. Read a high koff as a short-lived complex. A word on the kon: it is the rate constant with which the complex forms.

Substitutions are numbered along the chain they refer to. Numbers in names are those of the source.

B1: 3D12-372-10 (antibody, V domains shown)
VH: EIQLVQSGAEVKKPGASVKVSCKASGYTFTNYGMNWVRQAPGQGLEWMGWINTYTGESTYADDFKGRFTFTLDTSTSTAYMELSSLRSEDTAVYFCARGIYYYGSSYAMDYWGQGTTVTVSS
VL: DIQMTQSPSSLSASVGDRVTITCRASQDISDMLNWYQQKPGKTPKLLIYHTSRLYSGVPSRFSGSGSGTDYTFTISSLQPEDIATYFCQQGKTLPPAFGQGTKLEIKR
notes: no constant regions are stated for this clone
In the case of B1, the “Potency on hIL-1α (pM); inhibition of IL-1α induced hIL-8 production by MRC-5 cells” value (“Potency on hIL-1α (pM); inhibition” for short) in assay [1] came out at 49.9 pM. Moreover, the “Potency on cyno IL-1α (pM); inhibition of IL-1α induced hIL-8 production by MRC-5 cells” value (shortened to “Potency on cyno IL-1α (pM); inhibition”) in assay [2] amounted to 49.2 pM. In assay [3], this molecule displayed an EC50 of 0.0721 nM.

B2: 3D12-362-10/372-10 (antibody, V domains shown)
VH: B1 VH with I2V, A16V, N31T, N35H, K65Q, F68V, D110N
VL: B1 VL
As to B2, the “Potency on hIL-1α (pM); inhibition” value in assay [1] is 29.3 pM. The “Potency on cyno IL-1α (pM); inhibition” value in assay [2] was found to be 4.9 pM. The molecule further showed an EC50 in assay [3] of 0.133 nM.

B3: 3D12-372-15 (antibody, V domains shown)
VH: B1 VH with G44D
VL: B1 VL with D31N, H50Y, S56P, P96Y
notes: as for B1
With B3, in assay [1], the “Potency on hIL-1α (pM); inhibition” value was 38.6 pM. Also, the 50% effective concentration (EC50) in assay [3] stood at 0.0742 nM.

B4: 3D12-362-10 (antibody, V domains shown)
VH: B1 VH with I2V, A16V, N31T, N35H, K65Q, F68V, D110N
VL: B1 VL with D31N, M32C, H50Y, Y55H, P96Y
notes: no constant regions are stated for these clones; The humanized parents used human IgG1 with L234A/L235A and human kappa
In the case of B4, in assay [4], the Kd turned out to be 0.0528 nM, the koff was 8.38e-05 s⁻¹ and the kon came out at 1.59e+06 M⁻¹ s⁻¹. Further, in assay [5], binding was put at a Kd of 0.0135 nM, the koff came out at 2.19e-05 s⁻¹ and the kon came out at 1.63e+06 M⁻¹ s⁻¹. The “Potency on hIL-1α (pM); inhibition” value in assay [1] amounted to 4.8 pM. Also, in assay [2], the “Potency on cyno IL-1α (pM); inhibition” value was determined as 6.2 pM. Also, the EC50 in assay [3] came to 0.0196 nM.

B5: 3D12.6 (antibody, V domains shown)
VH: EIQLVQSGSELKKPGASVKVSCKASGYTFTNYGMNWVRQAPGQDLERMAWINTYTGESTYADDFKGRFVFSLDTSVSTAYLQISSLKAEDTAVYFCARGIYYYGSSYAMDYWGQGTTVTVSS
VL: DIQMTQSPSSLSASVGDRVTITCRASQDISNCLNWYQQKPGKTPKLLIYYTSRLHSGVPSRFSGSGSGTDYTFTISSLQPEDIATYFCQQGKTLPYAFGQGTKLEIK
notes: Full-length humanized antibody; VH is fused to a human IgG1 constant region with L234A and L235A (EU numbering); also called VH H3D12VH.1A / VL H3D12VK.1C; VH3D12.6
Turning to B5, in assay [4], the affinity, expressed as Kd, was 1.78 nM; the koff was 0.00206 s⁻¹; the on-rate constant (kon) came to 1.16e+06 M⁻¹ s⁻¹.

B6: 3D12.11 (antibody, V domains shown)
VH: B1 VH with G44D, W47R, G49A
VL: B5 VL
notes: Full-length humanized antibody; VH is fused to a human IgG1 constant region with L234A and L235A (EU numbering); also called VH H3D12VH.2A / VL H3D12VK.1C; VH3D12.11
In assay [4], B6 came in with a dissociation constant (Kd) of 0.665 nM, an off-rate (koff) of 0.00108 s⁻¹ and an association rate constant (kon) of 1.64e+06 M⁻¹ s⁻¹.

The values are drawn from patent publication US20120275996A1 (AbbVie / Abbott, published 2012).
